Here are results for five molecules from patent US20250145722A1, “ANTI-GAL3 ANTIBODIES AND METHODS OF USE” (TrueBinding, Inc., priority 2020, published 2025).

Assay [1] addresses human Galectin-3 (Gal3), full-length recombinant (human) (UniProt P17931). Put plainly: blocking ELISA, Gal3 coated, biotin-α-synuclein aggregates.
For assay [2] the target is unchanged. Kind of assay: blocking ELISA, Gal3 coated, biotin-APP695.
Assay [3] shares this target. Put plainly: blocking ELISA, Gal3 coated, biotin-Abeta42 oligomer.
For assay [4] the target is unchanged. Kind of assay: blocking ELISA, Gal3 coated, biotin-Abeta42 peptide.
The target is the same in assay [5]. Kind of assay: blocking ELISA, Gal3 coated, biotin-Tau aggregates.
Assay [6] has as its target cynomolgus Gal3 (cynomolgus). Kind of assay: not stated (FIG. 50).
The target in assay [7] is human Galectin-3 (Gal3), full-length recombinant (human) (UniProt P17931). Put plainly: blocking ELISA, Gal3 coated, VEGFR3-Fc, antibody 20 µg/ml.
human Galectin-3 (Gal3), full-length recombinant (human), sequence (P17931 2-250 limits assumed): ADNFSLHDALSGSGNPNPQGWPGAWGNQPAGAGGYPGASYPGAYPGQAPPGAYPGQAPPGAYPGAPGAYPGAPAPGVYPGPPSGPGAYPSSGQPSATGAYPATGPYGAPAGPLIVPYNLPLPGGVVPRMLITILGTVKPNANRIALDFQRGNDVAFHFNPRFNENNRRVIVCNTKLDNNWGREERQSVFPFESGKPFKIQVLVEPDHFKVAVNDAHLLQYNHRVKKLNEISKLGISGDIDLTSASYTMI
Assay [8] shares this target. Kind of assay: blocking ELISA, Gal3 coated, PDGFR beta-Fc, antibody 20 µg/ml.
The target is the same in assay [9]. Put plainly: blocking ELISA, Gal3 coated, TREM2-His.
The target is the same in assay [10]. Kind of assay: blocking ELISA, Gal3 coated, EGFR-Fc, antibody 20 µg/ml.
For assay [11] the target is unchanged. Kind of assay: blocking ELISA, Gal3 coated, PDGFR alpha-Fc, antibody 20 µg/ml.
The target is the same in assay [12]. Put plainly: blocking ELISA, Gal3 coated, biotin-TLR4.

Residue numbers refer to the chain shown, from its start.

B1: 12G5.D7 (antibody, from a related filing, V domains shown)
VH: QVQLKQSGAELVRPGASVKLSCKASGYTFTDYYINWVKQRPGQGLEWIARIYPGTGNTDYNEKFKGRATLTAEKSSSTAYMQLSSLTSEDSAVYFCARFAYYYGSGGYFDYWGHGTTLTVSS
VL: DILMTQSPSSMSVSLGDTVSITCHASQGINSNMGWLQQKPGKSFKGLIYHATNLEDGVPSRFSGSGSGADYSLTISSLESEDFADYYCVQYAQFPPTFGSGTKLEIK
Take B1: the % blocking of Gal3-α-synuclein aggregates binding in [1] was below 50%. Besides, the % blocking of Gal3-APP695 binding in assay [2] was above 86%. The % blocking of Gal3-Abeta42 oligomer binding in assay [3] is below 26%. Besides, the % blocking of Gal3-Abeta42 peptide binding in [4] is below 46%. Further, the % blocking of Gal3-Tau aggregates binding in [5] was below 50%.

B2: TB001 (antibody, IgG4, V domains shown)
VH: QVQLVQSGSELKKPGASVKVSCKASGYTFTNYGMNWVRQAPGQGLKWMGWINTNTGEPTYVEEFTGRFVFSLETSVSTAYLQISSLKAEDTAVYFCAPYDNFFAYWGQGTTVTVSS
VL: DIVLTQSPLSLPVTPGEPASISCRSSKSLLYKDGKTYLNWFLQKPGQSPQLLIYLMSTHASGVPDRFSGSGSGTDFTLKISRVEAEDVGVYYCQQLVDYPLTFGGGTKLEIKR
The molecule B2 displayed a Kd in assay [6] of 8.9 nM.

B3: 7D8.2D8 (antibody, mouse IgG2a, V domains shown)
VH: EVQLVESGGGLVKPGGSLKLSCAASGFTFSSYAMSWVRQTPEKRLEWVATISDGGIYTYYPDNVKGRFTISRDNAKNNLFLQMSHLKSEDTAMYYCVRDGGYWGQGTTLTVSS
VL: DVLMTQTPLSLPVSLGDQASISCRSSQSIVHSNGNTYLEWYLQKPGQSPKLLIYKVSNRFSGVPDRFSGSGSGTDFTLKISRVEAEDLGVYYCFQGSHVPLTFGAGTKLELKR
In the case of B3, the % blocking of Gal3-VEGFR3 binding in assay [7] was below 30%. Moreover, the % blocking of Gal3-PDGFR beta binding in [8] is below 30%. The % blocking of Gal3-APP695 binding in [2] is above 90%. The % blocking of Gal3-TREM2 binding in assay [9] was above 90%. Further, the % blocking of Gal3-EGFR binding in assay [10] was below 30%. In addition, in assay [11], the % blocking of Gal3-PDGFR alpha binding is below 30%. In addition, in [12], the % blocking of Gal3-TLR4 binding is above 90%.

B4: 15F10.2D6 (antibody, mouse IgG2a, V domains shown)
VH: B3 VH with T28A, I56V, P61T, N63H, K76E, N77D, F80Y
VL: B3 VL with S32N, A105G
B4: the % blocking of Gal3-APP695 binding in [2] was above 90%. Further, the % blocking of Gal3-TREM2 binding in [9] was above 90%. In [5], the % blocking of Gal3-Tau aggregates binding is below 50%. Besides, the % blocking of Gal3-TLR4 binding in assay [12] is above 90%.

B5: TB006 (antibody, V domains shown)
VH: QVQLVQSGAEVKKPGASVKVSCKASGYSFTNYYMHWVRQAPGQRLEWMGWIYPGSGNTNYNEKFQGRVTITADTSASTAYMELSSLRSEDTAVYYCSTAPGGFDVWGQGTTVTVSS
VL: DIVMTQTPLSLSVTPGQPASISCKSSKSLLHSDGITYLYWYLQKPGQSPQLLIYRMSNLASGVPDRFSGSGSGTDFTLKISRVEAEDVGVYYCAQMLEFPLTFGQGTKLEIKR
B5 showed a Kd in [6] of 5.1 nM.
